Source: US20100130721A1

B1: fusion protein PG3 (designed binder)
chain: AYRLILNGRTLRGETTTEAVDAATAERVFRQYANDNGVDGEWTYDDATRTFTVTERPEVIDASELTPAVTPGAYRLILNGRTLRGETTTEAVDAATAERVFRQYANDNGVDGEWTYDDATRTFTVTERPEVIDASELTPAVTPGAYRLILNGRTLRGETTTEAVDAATAERVFRQYANDNGVDGEWTYDDATRTFTVTERPEVIDASELTPAVTGGGGCADDDDDDHHHHHH
B2: fusion protein PL1 (designed binder)
chain: ATIRANLIYADGRTQTAEFRGTFEEATAEAYRYADLLARENGRYTVDVADRGYTLNIRFAGGGGGCADDDDDDHHHHHH
B3: fusion protein PG2 (designed binder)
chain: AYRLILNGRTLRGETTTEAVDAATAERVFRQYANDNGVDGEWTYDDATRTFTVTERPEVIDASELTPAVTPGAYRLILNGRTLRGETTTEAVDAATAERVFRQYANDNGVDGEWTYDDATRTFTVTERPEVIDASELTPAVTGGGGCADDDDDDHHHHHH
B4: fusion protein PG1 (designed binder)
chain: AYRLILNGRTLRGETTTEAVDAATAERVFRQYANDNGVDGEWTYDDATRTFTVTERPEVIDASELTPAVTGGGGCADDDDDDHHHHHH
B5: fusion protein PL2 (designed binder)
chain: ATIRANLIYADGRTQTAEFRGTFEEATAEAYRYADLLPRENGRYTVDVADRGYTLNIRFAPGATIRANLIYADGRTQTAEFRGTFEEATAEAYRYADLLPRENGRYTVDVADRGYTLNIRFAGGGGGCADDDDDDHHHHHH
B6: fusion protein PL3 (designed binder)
chain: ATIRANLIYADGRTQTAEFRGTFEEATAEAYRYADLLPRENGRYTVDVADRGYTLNIRFAPGATIRANLIYADGRTQTAEFRGTFEEATAEAYRYADLLPRENGRYTVDVADRGYTLNIRFAPGATIRANLIYADGRTQTAEFRGTFEEATAEAYRYADLLPRENGRYTVDVADRGYTLNIRFAGGGGGCADDDDDDHHHHHH

The binders below were run against human polyclonal IgG (human) (assay: SPR (Biacore), His-tagged fusion protein captured on Ni-NTA chip, human IgG injected).

Kd [nM]	koff [s⁻¹]	kon [M⁻¹ s⁻¹]	Binder
0.068	7.63e-05	1.12e+06	B1
2.06	0.000312	151000	B2
0.115	0.0001	864000	B3
0.384	0.000154	401000	B4
1.34	0.000264	246000	B5
0.788	0.000237	301000	B6
